# Experimental data from paper PMC6778195 (2019).
# B1: ICAM-1^D1D5-Fc (Fc fusion)
# chain: QTSVSPSKVILPRGGSVLVTCSTSCDQPKLLGIETPLPKKELLLPGNNRKVYELSNVQEDSQPMCYSNCPDGQSTAKTFLTVYWTPERVELAPLPSWQPVGKNLTLRCQVEGGAPRANLTVVLLRGEKELKREPAVGEPAEVTTTVLVRRDHHGANFSCRTELDLRPQGLELFENTSAPYQLQTFVLPATPPQLVSPRVLEVDTQGTVVCSLDGLFPVSEAQVHLALGDQRLNPTVTYGNDSFSAKASVSVTAEDEGTQRLTCAVILGNQSQETLQTVTIYSFPAPNVILTKPEVSEGTEVTVKCEAHPRAKVTLNGVPAQPLGPRAQLLLKATPEDNGRSFSCSATLEVAGQLIHKNQTRELRVLYGPRLDERDCPGNWTWPENSQQTPMCQAWGNPLPELKCLKDGTFPLPIGESVTVTRDLEGTYLCRARSTQGEVTRKVTVNVLSPRYE
# Target: J1a DBLβ domain (wild type) (Plasmodium falciparum)
# Assay: SPR
binder,measurement,value
B1,Kd,262 nM
